The values below come from article PMC10361993, “Amyloid modifier SERF1a interacts with polyQ-expanded huntingtin-exon 1 via helical interactions and exacerbates polyQ-induced toxicity” (Communications Biology, 2023).

“And” between values parts separate entries of the source, which are not always exact repeats. Equal values may be shown once. Where a SMILES comes first, the peptide text is derived from it.

B1: NT17 peptide (N-terminal 17 amino acids of Htt) (peptide, UniProt P42858 1-17, looked up)
peptide: MATLEKLMKAFESLKSF
notes: N-terminal 17 amino acids of huntingtin; source: synthetic peptide (peptide synthesis core, Genomics Research Center, Academia Sinica)
B2: Human SERF1a (small EDRK-rich factor 1a), short form (natural protein, UniProt O75920-2 1-62, looked up)
chain: MARGNQRELARQKNMKKTQEISKGKRKEDSLTASQRKQRDSEIMQEKQKAANEKKSMQTREK
notes: Small EDRK-rich factor 1a, human, short form of 62 residues (the long form has 110); full-length cDNA amplified by PCR from GenBank BC021174; 15N-labelled (M9 minimal medium) for the NMR titration; also called rSERF1a; recombinant SERF1a; source: E. coli BL21(DE3), purified (Ni-Sepharose, thrombin cleavage, Mono-S); not shown: His-tag, N-terminal, cleaved

The target of data set [1] is T1, SERF1a (Homo sapiens, UniProt O75920).
T1 construct: Full-length SERF1a cDNA was amplified by PCR; His-tag with thrombin site (N, cleaved yes); made in house; host or cells: E. coli BL21(DE3), pET14b
T1 sequence (O75920 1-62 isoform O75920-2): B2 chain
As to the kind of experiment: Isothermal titration calorimetry of Htt peptides with SERF1a. In kind it is binding. The note with it: ITC, 250 μM SERF1a injected into 50 μM peptide, 10 mM PB pH 7.4, 26 °C. Here is the method: MicroCal iTC200 (GE) was used for ITC experiments. SERF1a was in 10 mM PB, pH 7.4. For Htt-0, Htt-1, Htt-2, Htt-4, and Htt-5, 300 μM SERF1a in syringe was injected into the cell containing 30 μM Htt peptides. The volume of each injection was 2 μl. For Htt-3 and NT17, 250 μM SERF1a in syringe was injected into the cell containing 50 μM Htt peptides. The volume of each injection was 1.5 μl. The cell of the calorimeter was maintained at 26 °C. ITC analysis software MicroCal Analysis Launcher (GE Healthcare) was used for data analysis.
In general terms: In ITC the heat of successive injections is recorded.

Data set [2] concerns the target T1, SERF1a. As to the kind of experiment: Intrinsic tyrosine fluorescence titration of Aβ or α-synuclein with SERF1a. In kind it is binding. The note with it: tyrosine fluorescence quenching upon SERF1a titration, fitted.
A short description of data set [3]: ThT assay of Aβ and α-synuclein fibrillization with and without SERF1a. In kind it is physicochemical. Conditions: Aβ 25 μM, α-synuclein 50 μM, 25 °C, shaking.
Procedure: For SERF1a and α-synuclein aggregation assay, α-Synuclein at 50 μM in Tris buffer (10 mM Tris-HCl, pH 7.4, and 150 mM NaCl) was incubated with different SERF1a concentrations in a 384-well ELISA plate. ThT at 10 μM was added in the samples. The samples were constantly rotated at 400 rpm during the incubation. ThT fluorescence was measured at 485 nm with an excitation of 442 nm at 25 °C by a microplate reader (SpectraMax M5; Molecule Devices) with SoftMax Pro 5.4. The data from independent trials were averaged, and the standard deviations were calculated.
were incubated at 25 °C with continuous shaking at 800 rpm. ThT fluorescence at 485 nm was monitored with excitation at 442 nm. The error bars represent standard deviation.
In data set [4] the target is B2. The data set is described as follows: ITC; 250 μM SERF1a in syringe injected into 50 μM Htt-3 or NT17 in the cell; 10 mM PB pH 7.4, 26 °C, 1.5 μl injections. Conditions: both partners purified.
Data set [5] deals with Htt-3 peptide (four prolines at a/d positions of the polyQ region). The description is as above.
The target in data set [6] is B1. Described as above. The note with it: both partners purified.
For a further data set, the target named is α-Synuclein, P37840. The data set is described as follows: other fluorescence titration; tyrosine fluorescence of Aβ or α-synuclein titrated with SERF1a at different concentrations; quenching fitted. Conditions: remark: other sources report otherwise.
Data set [7] concerns the molecule itself. The data set is described as follows: AUC; sedimentation velocity; NT17 and Htt-3 at 50 μM, Htt-0, Htt-1, Htt-2, Htt-4 and Htt-5 at 30 μM, in 10 mM PB pH 7.4, 42,000 rpm for 24 h at 25 °C; c(s) distribution, SEDFIT.

As to `CSCC[C@H](NC(=O)[C@H](CC(C)C)NC(=O)[C@H](CCCCN)NC(=O)[C@H](CCC(=O)O)NC(=O)[C@H](CC(C)C)NC(=O)[C@@H](NC(=O)[C@H](C)NC(=O)[C@@H](N)CCSC)[C@@H](C)O)C(=O)N[C@@H](CCCCN)C(=O)N[C@@H](C)C(=O)N[C@@H](Cc1ccccc1)C(=O)N[C@@H](CCC(=O)O)C(=O)N[C@@H](CO)C(=O)N[C@@H](CC(C)C)C(=O)N[C@@H](CCCCN)C(=O)N[C@@H](CO)C(=O)N[C@@H](Cc1ccccc1)C(=O)N1CCC[C@H]1C(=O)N[C@@H](CCC(N)=O)C(=O)N[C@@H](CCC(N)=O)C(=O)N1CCC[C@H]1C(=O)N[C@@H](CCC(N)=O)C(=O)N[C@@H](CCC(N)=O)C(=O)N[C@@H](CCC(N)=O)C(=O)N1CCC[C@H]1C(=O)N[C@@H](CCC(N)=O)C(=O)N[C@@H](CCC(N)=O)C(=O)N1CCC[C@H]1C(=O)N[C@@H](CCC(N)=O)C(=O)N[C@@H](CCC(N)=O)C(=O)N[C@@H](CCC(N)=O)C(=O)N[C@@H](Cc1ccc(O)cc1)C(=O)N[C@@H](CCCCN)C(=O)O` [Htt-3] (H-MATLEKLMKAFESLKSFPQQPQQQPQQPQQQYK-OH), the Kd (commonly the concentration at which binding is half-saturated) at SERF1a [1] is 332 nM.
α-synuclein came in with a Kd on SERF1a [2] of 20800 ± 8300 nM. Also, in data set [3], the “effect of SERF1a on fibrillization (ThT assay)” value is “accelerated”.
In data set [4], B1 showed a Ka of 1.38e+07 M⁻¹ and a Kd of 72.5 nM.
Regarding B2, in data set [5], the Ka is 3.01e+06 M⁻¹; the Kd was found to be 332 nM; the stoichiometry N – broadly, a count of units in the complex or per binding partner – stood at 0.5. Moreover, the “stoichiometry N” value in data set [6] is around 0.5. For the same molecule, the Kd in the data set with α-Synuclein, P37840 worked out at 20800 nM.
Turning to MATLEKLMKAFESLKSFQQQQQQQQQQQQQQPPP [Htt-0, wild-type Htt peptide of 33 amino acids], in data set [7], the “stoichiometry N” value was found to be 2.
On the same count and under the same terms, the value for MATLEKLMKAFESLKSFLQQLQQQLQQLQQQPPP [Htt-1, Htt peptide with four leucines in the polyQ region] was 5 and 8.
